# In patent US20250090677A1, “ANTI-CDH6 ANTIBODIES AND ANTIBODY-DRUG CONJUGATES THEREOF” (MULTITUDE THERAPEUTICS INC., priority 2021, published 2025):
# What was measured:
# [1] = biological target: T1, recombinant protein CDH6 (Homo sapiens, UniProt P55285); test: ELISA binding activity of mouse monoclonal antibodies to CDH6 recombinant protein; conditions: CDH6 coated 1 μg/mL, FIG. 23
# T1 construct: CDH6 extracellular region (Ser 54-Ala 615) was used as an immunogen; purchased ACRO Biosystems CA6-H5229
# T1 sequence (P55285 54-615): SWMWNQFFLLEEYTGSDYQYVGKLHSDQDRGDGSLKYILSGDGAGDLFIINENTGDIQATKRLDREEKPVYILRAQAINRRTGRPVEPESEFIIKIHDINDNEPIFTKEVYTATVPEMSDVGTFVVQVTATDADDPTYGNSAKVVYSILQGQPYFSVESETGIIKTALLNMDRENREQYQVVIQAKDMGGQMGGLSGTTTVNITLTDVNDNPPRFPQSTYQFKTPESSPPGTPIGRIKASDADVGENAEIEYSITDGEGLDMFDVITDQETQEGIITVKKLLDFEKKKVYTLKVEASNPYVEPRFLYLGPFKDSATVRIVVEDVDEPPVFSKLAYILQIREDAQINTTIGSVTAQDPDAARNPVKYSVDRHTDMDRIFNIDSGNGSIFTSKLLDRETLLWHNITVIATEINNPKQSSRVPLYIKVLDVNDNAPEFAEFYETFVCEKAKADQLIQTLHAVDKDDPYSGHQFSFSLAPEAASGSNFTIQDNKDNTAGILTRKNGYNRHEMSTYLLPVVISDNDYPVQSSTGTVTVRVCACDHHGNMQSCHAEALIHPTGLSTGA
# Description: The recombinant protein CDH6 was coated on ELISA plates at 1 μg/mL overnight at 4° C.; after being washed with PBST, the plate was added with 10% fetal bovine serum, and the mixture was blocked at 37° C. for 1 h; the plate was added with 13 monoclonal antibodies of CDH6 with different dilutions (0.1 ng/mL to 100 ng/mL), and the mixture was reacted at 37° C. for 1 h; after being washed with PBST, the plate was added with horseradish peroxidase-labeled goat anti-human IgG secondary antibody (Goat anti Mouse (HRP), Thermo Fisher Scientific), and the mixture was reacted at 37° C. for 30 min; after the plate was repeatedly washed with PBST 5 times, the remaining droplets on the absorbent paper were patted as much as possible; each well of the plate was added with 100 μL of TMB (eBioscience) and placed in the dark at room temperature (20±5° C.) for 1.5 min; each well of the plate was added with 100 μL of 2 N H2SO4 stop buffer for stopping substrate reaction, OD values at 450 nm were read using a microplate reader, and the binding ability of the antibody to the target antigen CDH6 was analyzed. As shown in Table 1 and FIG. 23, the sensitivity of the anti-CDH6 antibody and CDH6 recombinant protein of the present application was not more than 12.5 ng/mL, wherein #13 (CL069463 antibody) was not more than 3.125 ng/mL, #23 (CL069707 antibody) was not more than 1.56 ng/mL, #4 (CL069066 antibody) was not more than 6.3 ng/mL, and #16 (CL069439 antibody) was not more than 1.0 ng/mL.
# [2] = Hydrophilicity of antibody-drug conjugate by HIC-HPLC (common procedure H); assay type: physicochemical; conditions: shorter retention time = better hydrophilicity
# Excerpt: The Hydrophilicity of the antibody-drug conjugate can be determined by hydrophobic interaction chromatography (HIC) in high-performance liquid chromatography (HPLC) analysis using the following method. • HPLC system: Agilent 1260 Infinity II HPLC system (Agilent Technologies, Inc.) • Detector: Ultraviolet absorption spectrometer (measurement wavelength: 280 nm) • HIC-Column: TOSOH TSKgel Butyl-NPR (4.6 mm I.D.×3.5 cm, 2.5 μm) • Mobile phase A: 1.5 mol/L (NH4)2SO4, 50 mmol/L KHPO4, pH7.0 • Mobile phase B: 50 mmol/L KHPO4, 25% (v/v) isopropanol, pH7.0 • Isocratic Operation: 25 min • Column temperature: room temperature • Gradient program (B %): 0%-25% (0 min-1 min), 25% (1 min-3 min), 25%-80% (3 min-13 min), 80% (13 min-17 min), 80%-0% (17 min-17.10 min), 0% (17.10 min-25 min) • Sample injection: 10 μL
# It is confirmed that the shorter the retention time, the better of the sample's hydrophilicity
# [3] = tested on: Renal Carcinoma Patient-Derived Xenograft (PDX); test: In vivo antitumor effect in renal carcinoma patient-derived xenograft (PDX) model; parameters: species or system mice; conditions: 10 mg/kg intravenous, compared with IgG-LP1 or IgG-GGFG-DXd, FIG. 21A
# Description: 6-8 weeks Nu/Nu mice were purchased from Zhejiang Charles River Co., Ltd. The tumors were sliced into 3 mm×3 mm×3 mm (about 50-90 mg) fragments and implanted subcutaneously into the right flank of mice. Then the animals were checked daily for tumor growth and body weight. The mice were randomized into 5 groups when mean tumor volume reaches ˜150 mm^3. The grouping day was regarded as day 0. Mice were then injected intravenous with 10 mg/kg of one of the following substances:10 mg/kg IgG-LP1, CL069707-H1L1-LP1, IgG-GGFG-DXd, Reference ADC and Reference Antibody-LP1. Tumor volumes were measured two times per week from day of treatment initiation by Caliper and calculated as follows: […].
# [4] = Aggregation of antibody-drug conjugate by SEC-HPLC (common procedure G); assay type: physicochemical
# Excerpt: The aggregation in the antibody-drug conjugate can be determined by size exclusion chromatography (SEC) in high-performance liquid chromatography (HPLC) analysis using the following method. • HPLC system: Agilent 1260 Infinity II HPLC system (Agilent Technologies, Inc.) • Detector: Ultraviolet absorption spectrometer (measurement wavelength: 280 nm) • SEC-Column: TOSOH TSKgel G3000SWXL (7.8×300 mm, 5 μm) • Mobile phase: 200 mmol/L KHPO4, 150 mmol/L NaCl, 15% (v/v) isopropanol, pH7.0 • Flow rate: 0.75 mL/min • Isocratic Operation: 18 min • Column temperature: room temperature • Sample injection: 50 μg
# The SEC chromatogram of quality control (QC, CL069707-H1L1) was shown in FIG. 5A, it is confirmed that the molecular weight of the main QC product is about 150 kDa and the monomer retention time is around 9.5-10.5 min. Meanwhile, the retention time of aggregation is earlier than that of monomer.
# [5] = tested on: HepG2 cells (human hepatoma cells); test: Flow cytometry, HepG2 negative cells; assay type: binding; conditions: antibody diluted to 20 μg/mL, FCM
# Description: (§1) The binding of 13 CDH6 monoclonal antibodies to CDH6 on the cell surface was analyzed by Flow cytometry (FCM) using OVCAR-3 cells (human ovarian cancer cells) as positive cells and HepG2 cells (human hepatoma cells) as negative cells. Cells in the logarithmic growth phase were collected, adjusted to a cell density of 5×10^6 cells/mL, and pre-cooled on ice. 13 CDH6 monoclonal antibodies were diluted to 20 μg/mL in 2% FBS-containing pre-cooled saline. 100 μL of cells were taken and added with an equal volume of the diluted CDH6 monoclonal antibodies described above, and the mixture was reacted at 4° C. for 30 min in the dark. After the reaction was completed, the cells were washed twice with […] pre-cooled saline (6000 rpm, 45 s). The secondary antibody PE anti-mouse IgG (BD Pharmingen) was diluted at 1:500 with 2% FBS-containing pre-cooled saline, and each of the washed cells were resuspended with 100 μL of diluted secondary antibody and reacted for 30 min at 4° C. in the dark. After the reaction was completed, the cells were washed twice with 2% FBS-containing pre-cooled saline (6000 rpm, 45 s). The cells were resuspended in 400 μL of saline. The flow cytometer (BD Calibur) was used to analyze the binding ability of antibodies to cell surface antigens.
# [6] = tested on: OVCAR-3 cells (human ovarian cancer cells); test: Flow cytometry recognition of cell-surface CDH6, OVCAR-3 positive cells; assay type: binding; conditions: antibody diluted to 20 μg/mL, FCM, FIG. 24
# Description: as §1
Molecule,sensitivity of the anti-CDH6 antibody and CDH6 recombinant protein (ELISA) [1],retention time of the antibody-drug conjugate measured by common procedure H [2] [min],tumor volume / tumor growth inhibition [3],aggregation of the antibody-drug conjugate measured by common procedure G [4] [%],binding to negative cells HepG2 [5],specific recognition of OVCAR-3 cells (positive cells) [6]
"CL069439: mouse anti-CDH6 monoclonal antibody; VH SEQ ID NO: 103, VL SEQ ID NO: 104 (antibody, V domains shown, CL069439 VH; Ch069439 VH; CL069439 VL; Ch069439 VL) VH: EVQLQQSGTELVRTGASVKISCKASGYSFTGYYIHWIKQSHGESLEWIGYISCFNGDTSYNQNFKDRATFNVDTSSSTAYMQFISLTSEDSAVYYCVRGRYGNFNYFDYWGQGTTLTVSS VL: DIVLTQSPASLAVSLGQRATISCRASESVEFYGTSLMQWFQQKPGHPPQLLIYATSNVDSGVPARFSASGSGTDFSLNIHPVEEADIAMYFCQQSRRIPWTFGGGTKLEIK",not more than 1.0 ng/mL,,,,,
"DS-6000a (conjugate, chains of the INN, looked up, deruxtecan payload) VH: EVQLVQSGAEVKKPGASVKVSCKASGYTFTRNFMHWVRQAPGQGLEWMGWIYPGDGETEYAQKFQGRVTITADTSTSTAYMELSSLRSEDTAVYYCARGVYGGFAGGYFDFWGQGTLVTVSS VL: DIQMTQSPSSLSASVGDRVTITCKASQNIYKNLAWYQQKPGKAPKLLIYDANTLQTGVPSRFSGSGSGSDFTLTISSLQPEDFATYFCQQYYSGWAFGQGTKVEIK",,7.672,no tumor growth inhibition activity,2.68,,
"CL069707: mouse anti-CDH6 monoclonal antibody; VH SEQ ID NO: 18, VL SEQ ID NO: 23 (antibody, V domains shown, CL069707 VH; Ch069707 VH; CL069707 VL; Ch069707 VL) VH: EVHLVESGGGLVQPKGSLKLSCVASGFTFTTYAMNWVRQAPGKGLEWVARIRIKNNNYATYYADSVTDRFTISRDDSQSMLYLQMNNLKTEDTAMYYCVRPDYGNYGLAYWGQGTLVTVSA VL: EIVLTQSPTTMAASPGEKITITCSASSSISSHYLHWYQQKPGFSPKLLIYRSFYLASGVPLRFTGSGSGTSYSLTIGTMEAEDVATYYCQQDIVPLTFGAGTKLELK",not more than 1.56 ng/mL,,,,no binding was observed,capable of specifically recognizing
"CL069463: mouse anti-CDH6 monoclonal antibody; VH SEQ ID NO: 41, VL SEQ ID NO: 46 (antibody, V domains shown, CL069463 VH; Ch069463 VH; CL069463 VL; Ch069463 VL) VH: EVQLVESGGGLVQPKGSLKLSCAASGFTFNTYALTWVRQAPGKGLEWVGRIKSKNKDYETYYADSVKDRFTISRNDSQSLLYLQMNNLKTEDTAIYYCVRQNWNYFDYWGQGTTLTVSS VL: DIQMTQSPASLAASVGETVTITCRASENIYYSLAWYQQRQGKSPQLLIYNANSLKDGVPSRFSGSGSGTQYSMKINSMQPEDTATYFCQQAYDVPPTFGGGTKLEIK",not more than 3.125 ng/mL,,,,no binding was observed,capable of specifically recognizing
"CL069066: mouse anti-CDH6 monoclonal antibody; VH SEQ ID NO: 95, VL SEQ ID NO: 96 (antibody, V domains shown, CL069066 VH; Ch069066 VH; CL069066 VL; Ch069066 VL) VH: EVKLLESGGGLVQPGGSLKLSCAASGFDFSRYWMTWVRQAPGKGLEWIGEINPDSSTINYTPSLKDKFIISRDNAKNTLYLQMNKVTSEDTALYYCTRRPHYYGYFDSWGQGTTLTVSS VL: DIVLTQSPASLAVSLGQRATISCRASESVEYYGTTLMQWYQQKPGQPPQLLIYAGSNVESGVPARFSGSGSGTEFSLNIHPVEEDDIGMYFCQQSRKVPWTFGGGTKLEIK",not more than 6.3 ng/mL,,,,,
